Experimental data: the RNAGym collection of RNA variant scans (doi:10.1073/pnas.2313332121)

B1: TPR t1 (parent)
chain: GACCAAUCUGCCCUCAGAGCUCGAGAACAUCUUCGGAUGCAGAGGAGGCAGGCUUCGGUGGCGCGAUAGCGCCAACGUCCUCAACCUCCAAUGCAUCCCACCACAUGAUGAUGCCUGAAGAGCCUUGGUUUUUUG

Variants of: B1
Experiment: polymerase ribozyme fitness, log enrichment relative to wild type (log ratio); higher = more active; in vitro selection for triplet polymerase activity
Procedure, shortened: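 Libraries of mutants in each subunit of a heterodimeric triplet polymerase ribozyme were generated by PCR and transcribed. In triplicate, each went through one in vitro selection round: annealing with biotinylated primer, partner subunit and triplets; frozen incubation at −7 °C; gel excision of extended constructs; streptavidin-bead capture; RT-PCR. Fitness, taken from Illumina sequencing of input and output libraries, is the logarithm of a genotype's enrichment over wild-type enrichment, averaged across replicates with inverse-variance weights. The logarithm is base 2, and genotypes needed ≥10 input reads and ≥1 read per output to be kept.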
For GACCAAUCUGACCUCAGAGCUCGAGAACAUCUUCGGAUGCAGAGGAGGCAGGCUUCGGUGGCGCGAUAGCGCCAACGUCCUCAACCUGCAAUGCAUCCCACCACAUGAUGAUGCCUGAAGAGCCUUGGUUUUUUG [C11A C88G], the “polymerase ribozyme fitness (log ratio)” value was -2.99.
In the case of GACCAAUCUGACCUCAGAGCUCGAGAACAUCUUCGGAUGCAGAGGAGGCAGGCUUCGGUGGUGCGAUAGCGCCAACGUCCUCAACCUCCAAUGCAUCCCACCACAUGAUGAUGCCUAAAGAACCUUGGUUUUUUG [C11A C62U G117A G122A], the “polymerase ribozyme fitness (log ratio)” value is reported as -0.74.
With GACCAAUCUGACCUCAGAGCUCGAGAACAUCUUCGGAUGCAGAGGAGGCAGGUUUAGGUGGCGCGAUAGCGCCAAGGUCCUCAACCUCCAAUGCAUCCCACCACAUGAUGAUGCCUGAAGAGCCUUGGUUUUUUG [C11A C53U C56A C76G] the “polymerase ribozyme fitness (log ratio)” value was -3.44.
For GACCAAUCUGACCUCAGAGCUCGAGAACAUCUUCGGAUGCAGAGGAGGCAGGGUUCGGUGGCGCGAUAUCGUCAACGUCCUCAACCUCCAAUGCAUCCCACCACAUGAUGAUGCCUGAAGAGCCUUGGUUUUUUG [C11A C53G G69U C72U], the “polymerase ribozyme fitness (log ratio)” value was -1.37.
In the case of GACCAAUCUGACCUCAGAGCUCGAGAACAUCUUCGGAUGCAGAGGAGGCAGGCUUCGGUGGCGCGAUAGCGCCAACGUCCUAAACCUCCAAUGCAUCCCACCACAUGAUGAUGCCUGAAGAGCCUUGGUUUUUUG [C11A C82A], the “polymerase ribozyme fitness (log ratio)” value is reported as -2.13.
In the case of GACCAAUCUGACCUCAGAGCUCGAGAACAUCUUCGGAUGCAGAGGAGGCAGGCUUAGGUGGCGUGAUAGCGCCAACGUCCUCAACCUCCAAUGCAUCCCACCACAUGAUGAUGCCUGAAGAGCCUGGGUUUUUUG [C11A C56A C64U U126G], the “polymerase ribozyme fitness (log ratio)” value is reported as -4.75.
In the case of GACCAAUCUGACCUCAGAGCUCGAGAACAUCUUCGGAUGAAGAGGAGGCAGACUUCGGUGGCGCGAUAGCGCCAACGUCCUCAACCUCCAAAGCAUCCCACCACAUGAUGAUGCCUGAAGAGCCUUGGUUUUUUG [C11A C40A G52A U92A], the “polymerase ribozyme fitness (log ratio)” value is reported as -3.14.
In the case of GACCAAUCUGACCUCAGAGCUCGAGAACAUCUUCGGAUGCAGAGGAGGGAGGCUUCGGUGGCGCGAUAGCGCCAACGUCCUCAACCUCCAAUGCAUCCCACCACAUGAUGAUGCCUGAAGAGCCUUGGUUUUUUG [C11A C49G], the “polymerase ribozyme fitness (log ratio)” value is reported as -1.67.
In the case of GACCAAUCUGACCUCAGAGCUCGAGAACAUCUUCGGAUGCAGAGGAGGCAGGCUUCGGUGGCGCGAUAGCGCCAAAGUCCUCAACCUCCAAUGCAUCCCACCACAUGAUGAUGCCUGAAGAGCCUUGGUUUUUUG [C11A C76A], the “polymerase ribozyme fitness (log ratio)” value is reported as -2.77.
In the case of GACCAAUCUGACCUCAGAGCUCGAGAACAUCUUCGGAUGCAGAGGAGGCAGGGUUCGGUGGCGCGAUAGCGCCAACGUCCUCAACCUCCAAUGCAUCCCACCACAUGAUGAUGCCUGAAGAGCCUUGGUUUUUUG [C11A C53G], the “polymerase ribozyme fitness (log ratio)” value is reported as -1.8.
For GACCAAUCUGACCUCAGAGCUCGAGAACAUCUUCGGAUGCAGAGGAGGCAGGUUUCGGUGGCGCGAUAGCGCCAACGUCCUCAACCUCCAAUGCAUCCCACCACAUGAUGAUGCCUGAAGAGCCUUGGUUUUUUG [C11A C53U], the “polymerase ribozyme fitness (log ratio)” value was -1.77.
With GACCAAUCUGACCUCAGAGCUCGAGAACAUCUUCGGAUGUAGAGGAGGCAGGCUUCGGUGGCGCGAUAGCGCCAACGUCCUCAACCUCCAAUGCAUCCCACCACAUGAUGAUGCCUGAAGAGCCUUGGUUUUUUG [C11A C40U] the “polymerase ribozyme fitness (log ratio)” value was -2.35.
In the case of GACCAAUCUGACCUCAGAGCUCGAGAACAUCUUCGGAUGCAGAGGAGGCAGGCUUCGGUGGCGCGAUAGCGGCAACGUACUCAAACUCCAAUGCAUCCCACCACAUGAUGAUGCCUGAAGUGCCUUGGUUUUUUG [C11A C72G C79A C85A A121U], the “polymerase ribozyme fitness (log ratio)” value is reported as -1.86.
For GACCAAUCUGACCUCAGAGCUCGAGAACAUCUUCGGAUGCAGAGGAGGGAGGCUUCGGUAGCGCGAUAGCGCCAACGUCCUCAACCUCCAAUUCAUCCCACCACAUGAUGAUGCCUGAAGAGCCUUGGUUUUUUG [C11A C49G G60A G93U], the “polymerase ribozyme fitness (log ratio)” value was -2.13.
With GACCAAUCUGACCUCAGAGCUCGAGAACAUCUUCGGAUGCAGAGGAGGGAGGCUUCGGUAGCGCGAUAGCGCCAUCGUCCUCAACCUCCAAUUCAUCCCACCACAUGAUGAUGCCUGAAGAGCCUUGGUUUUUUG [C11A C49G G60A A75U G93U] the “polymerase ribozyme fitness (log ratio)” value was -3.77.
With GACCAAUCUGACCUCAGAGCUCGAGAACAUCUUCGGAUGCAGAGGAGGGAGGCUUCGGUGGCGUGAUAGCGCCAACGUCCUCAACCUCCAAUGCAUCCCACCACAUGAUGAUGCCUGAAGUGCCUUGGUUUUUUG [C11A C49G C64U A121U] the “polymerase ribozyme fitness (log ratio)” value was 0.957.
In the case of GACCAAUCUGACCUCAGAGCUCGAGAACAUCUUCGGAUGCAGAGGAGGCAGGCUUCGGUGGCGCGAUAGCGACAACGUCCUCAACCUCCAGUGCAUCCCACCACAUGAUGAUGCCUGAAGAGCCUGGGUUUUUUG [C11A C72A A91G U126G], the “polymerase ribozyme fitness (log ratio)” value is reported as -5.33.
In the case of GACCAAUCUGACCUCAGAGCUCGAGAACAUCUUCGGAUGCAGAGGAGGCAGGCUUCGGUGGCGCGAUAGCGCCAACGUCCUCAACCUCAAAUGCAUCCCACCACAUGAUGUUGCCUGAAGAACCUUGGUUUUUUG [C11A C89A A111U G122A], the “polymerase ribozyme fitness (log ratio)” value is reported as -5.04.
With GACCAAUCUGACCUCAGAGCUCGAGAACAUCUUCGGAUGCAGAGGAGGCAGGCUUCGGUGGCGCGAUAGGGCCAACGUCUUCAACCUCCAAUGCAUGCCACCACAUGAUGAUGCCUGAAGAGCAUUGGUUUUUUG [C11A C70G C80U C97G C124A] the “polymerase ribozyme fitness (log ratio)” value was -5.66.
For GACCAAUCUGACCUCAGAGCUCGAGAACAUCUUCGGAUGCAGAGGAGGCAGGCUUCGGUGGCGUGAUAGCGCCAACGUCCUCAACCUCCAAUGCAUCCCACCACAAGUUGAUGCCUGAAGAGCCUUGGUUUUUUG [C11A C64U U106A A108U], the “polymerase ribozyme fitness (log ratio)” value was -3.91.
With GACCAAUCUGACCUCAGAGCUCGAGAACAUCUUCGGAUGCAGAGGAGGAAGGCUUCGGAGGCGCGAUGGCGCCAACGUCCUCAACCUCCAGUGCAUCCCACCACAUGAUGAUGCCUGAAGAGCCUUGGUUUUUUG [C11A C49A U59A A68G A91G] the “polymerase ribozyme fitness (log ratio)” value was -6.83.
